Results taken from paper PMC3215948 (The Journal of Cell Biology, 2006).
Where a chain is given by its changes, count along the chain named. Read-outs that look alike come from different tables or passages of the source.

How the values were obtained:
Test in all cases: pull-down
His6-Vps45p [1] = target: T1, His6-Vps45p (S. cerevisiae, UniProt P38932 1-577)
T1 sequence (looked up): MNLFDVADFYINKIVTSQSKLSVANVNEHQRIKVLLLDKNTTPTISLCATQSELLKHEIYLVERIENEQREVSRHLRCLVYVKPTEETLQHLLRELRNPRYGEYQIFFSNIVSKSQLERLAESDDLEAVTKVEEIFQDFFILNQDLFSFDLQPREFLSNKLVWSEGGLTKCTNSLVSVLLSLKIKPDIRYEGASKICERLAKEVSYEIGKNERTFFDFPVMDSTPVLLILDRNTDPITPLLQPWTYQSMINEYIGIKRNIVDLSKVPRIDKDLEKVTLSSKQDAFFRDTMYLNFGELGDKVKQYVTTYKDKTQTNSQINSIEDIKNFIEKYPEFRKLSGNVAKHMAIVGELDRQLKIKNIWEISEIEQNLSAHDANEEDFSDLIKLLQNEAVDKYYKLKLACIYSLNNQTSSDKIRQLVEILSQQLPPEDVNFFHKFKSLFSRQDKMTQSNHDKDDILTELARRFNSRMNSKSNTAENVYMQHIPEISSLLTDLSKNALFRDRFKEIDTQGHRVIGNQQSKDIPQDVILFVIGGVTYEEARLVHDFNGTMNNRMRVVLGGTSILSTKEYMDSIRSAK

His6-Vps45p_(L117R) = target: T2, His6-Vps45p_(L117R) (S. cerevisiae, UniProt P38932 1-577, L117R)
T2 sequence (looked up): T1 sequence (looked up) with L117R

His6-Vps45p [2] = target: T1, His6-Vps45p; remark: listed apart in the source

B1: Snc2p_(Δ2–19)-PrA (domain or fragment, S. cerevisiae, UniProt P33328 1-88, looked up)
chain: MANPNSQNKTAALRQEIDDTVGIMRDNINKVAERGERLTSIEDKADNLAISAQGFKRGANRVRKQMWWKD
B1: binds (His6-Vps45p [1]).

B2: Snc2p-PrA (cytosolic domain of Snc2p fused to protein A) (domain or fragment, S. cerevisiae, UniProt P33328 1-88, looked up)
chain: MSSSVPYDPYVPPEESNSGANPNSQNKTAALRQEIDDTVGIMRDNINKVAERGERLTSIEDKADNLAISAQGFKRGANRVRKQMWWKD
B2: binds (His6-Vps45p_(L117R)).

B3: Snc2p_(cyto) (cytosolic domain of Snc2p, PrA tag removed by thrombin) (domain or fragment, S. cerevisiae, UniProt P33328 1-88, looked up)
chain: B2 chain
B3: binds (His6-Vps45p [2]).
